According to publication PMC4856295 (Nature, 2016):

Experiments:
[1] = molecular target: TATA-binding protein (TBP), subunit of endogenous human TFIID (human, UniProt P20226 1-339); experiment: cryo-EM structure
cryo-EM structure = molecular target: the molecule itself; experiment: cryo-EM structure

TATA-binding protein (TBP), subunit of endogenous human TFIID, sequence (P20226 whole entry): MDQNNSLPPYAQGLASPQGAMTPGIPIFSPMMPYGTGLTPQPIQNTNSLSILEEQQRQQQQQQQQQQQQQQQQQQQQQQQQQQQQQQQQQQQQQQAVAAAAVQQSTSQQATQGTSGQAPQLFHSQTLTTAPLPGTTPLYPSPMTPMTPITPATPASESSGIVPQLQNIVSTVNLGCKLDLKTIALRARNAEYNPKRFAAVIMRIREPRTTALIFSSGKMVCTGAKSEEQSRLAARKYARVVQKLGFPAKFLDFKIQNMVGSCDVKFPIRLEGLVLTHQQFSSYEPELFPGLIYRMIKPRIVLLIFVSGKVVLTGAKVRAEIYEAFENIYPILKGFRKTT

binding result [1] | Binder | stoichiometry N (cryo-EM structure)
binds | human TFIIA (conserved three-subunit core TFIIA) (complex) chain 1: ANSANTNTVPKLYRSVIEDVINDVRDIFLDDGVDEQVLMELKTLWENKLMQSRAVDG chain 2: GAEDGQVEEEPLNSEDDVSDEEGQELFDTENVVVCQYDKIHRSKNKWKFHLKDGIMNLNGRDYIFSKAIGDAEW chain 3: AYQLYRNTTLGNSLQESLDELIQSQQITPQLALQVLLQFDKAINAALAQRVRNRVNFRGSLNTYRFCDNVWTFVLNDVEFREVTELIKVDKVKIVACDGKNTGSNTTE | –
– | TAF6, subunit of endogenous human TFIID (natural protein) not shown | 2
